For 21 sequences, protein production results are on record in a protein production outcome set (Wang et al. 2014).
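Note: failed if final PepcDB status was selected cloned or expressed and not failed if soluble or beyond.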

This data set is described as follows: label from the status in PepcDB records.
For “METLLHAKLLLSAEVESLKSGSFDQTYVKKAEHIISGESYQLVQQFVDKFKGKISISGEISTSSVIAALNDFLNVEVFKMGQENEMLFLAIALLQTFIQNNYTGPAARLKAISGLFGKTGIEIGAVNTALSRSLAIMGQPAYEFMDDPLYLVLSLLLLERITGQKSLFDVTPDQEIPLPIISAESTPGLLAVAYWWWARALLTQLSLIPEPSGFQASVASAIYQSADLAYAITKELPESIHEDFKRELCAMYYLENVKCSLAINTEHLCLPSLTRAKKITNFEFVMTGARATRTKYQQKAHAGLIILAKSFTFQNFALRTTSATPETFALESDLLLEKPHFESIADEPLDEQIYSKRQKVDLNEGYEEDKLLPLALRQENIPKLLLDLNPNDQPTLSDYDNIQLLLRLYTIKNTTPAKDPLVEEELTALLSRILYQNGDKNWSIFARSLWERSIIETTKAKTIERGLLQMQSLVEELDLKIKSKLVPSSSEINVASRLSYIHQLPFIPRWQLDATLAEKYMSLGILKSAVEIYERLGMACETALCYAAVGDEKKAEEILLQRINENDSDARAYSILGDIKQDPSLWEKSWEIGKYVNAKNSLAKYYFNPPPKSGAQPNYSATLKHLNDSLRQYPLSFETWYFYGCVGLQCGKMQIAAEAFTRCVSLDPYHALSWSNLSAAYTKMDKLKEAYSCLKRAISCDAQKNWKIWENYMLVAVKLNEWEDVLTACKQLVSIRRDKSGEGSIDLPIIEKLVELLVTSEYPEEPQQLSYFQKSCTEFICNTLPQVITTSARCWRLVARVELWRKRPWAALECHEKAYRAISHNPDLEVEEKVWNDTVDACEDLVAAYESLGEMEGKYGPGSLVCKDWKYKCRSTIKALMSKGKGRWDDSPGWDRLVEARSQI”, the protein production result was “failed”.

As to “METLSDVFATFSQRGDTTAFVHRTGVRRYVFTYLDLHALSLRMNRWLADQGVGEGDRVVLWGPNSPWWAVAFWGIVTRGAVAVPVDFMSGAERAEIIAGLTDAKLVIQSRDKLEHHHHHH”, the protein production entry is recorded as “not failed”.

“METNRPSPDALLVNLQEEADSSVGKLKIYFGFAAGVGKTYAMLSDAKDQLAAGVDVVAGYIEPHAREETLRMLEGIPIIPPKAINHKNIALKEFDLDEALKRKPELILVDELAHTNASGVRNKKRFQDVEELLQAGIDVYTTVNVQHIESLNDIVEGITKVAVRETIPDYVFDEADRVKLIDIEPDELLKRLEQGKIYQPARAKTAMQNFFTRENLKLLREIAMRKAADRI”: the protein production entry is “not failed”.

As to “METPNSTGGTPPTMRVSVVLCTHTMERYDDCRAAAESVLAQTYDDVELVLVSDGNRDVYKQYQSDFGNRDDVLTHCNDANVGLLESRNNGAEVATGDVVAFIDDDAIADEEWVAALVDAYEQQDALAVGGRMTPAWVAGKPSFLPAEFYWLIGVTHRGFGPNGDPDEPGVVRNTFGSNISFDRDVFLELGGFDDDIGGRQGEKNLQGGETELCARLRTEYDEGVYYTPEALVAHKIFDYRTDPGWLLDRAFWQGYSKRGMEVFVPESTGEESDFLSDLLFRFAPERIWGLVRAPSVAGVLQFVFLFALTAFVGFGYLYGMTVWG”, the protein production entry is listed as “failed”.

Consider “METRAPFVIVGAFVLAAIFAVFGFVFWLHNTSGVGARTSYHVQFRDPVPGLLVGAAVLFNGIRVGEVTALALAPDDPRRVDATIAVAPSTPVRPDTKVGLDFQGLTGVPVVALEGGKQLSGSAIATTLVAEPGAGMSMTQAAREALRKVDSVLGENSGPLKDTIANFKTFSEWLAGKTEKLDGILGGVERMTGANEPVVKKVVYDLSAATGFPPPSPPLKGQLTIPESNTVVLFDSQKMLLAPGLEVPAFAGAQWSDSLPKMLQEKLIQSFENYDIAHAPMRPNDAVQPDYQLLTDIRSFQVIGEGDALRAEIAFSAKIIDKDGKLVAARLFQQASPLDKPEPAAAVSAFDKSFDTIAKELVPWAAQALASGRAEVEPAATTSRPITAPRSSGTTKGR”, for which the protein production entry is “failed”.

Consider “METSRVEEWFERGVEALGHDQVYLARSCFEHVARVNQHPAASSYLALCQAKTRGKFSDAIALARESIAREPHNPLLYQNLGRIYQLAGMRMDAVEVLREGVRRGAGEEAVAELNRIGTRKQPPFRRLHRNHPLNKYVGKLLARLRLR”, for which the protein production result is “failed”.

As for “METTHYSIAQHFSSGDFPAVYACFNDIIEWNIIGNQVVKGKADVIDFCNKMLPEMKGAVLTNDNVIQNENQIVIEGKCRYFDAEGKEAFVSYCDIYRFENDTIKTITSYCI”, the protein production result was “not failed”.

For the sequence “MEVHAADQYLVAPGEADLLEVHARLAGTGLFPPFPPVELPGGVGGLVARGGFAQTFFFPAEVLGLTFRTPKGRRVRAGGVVVKNVQGYDLVRLFVGSFGLLGRAEEVVLRLRPGRAQAFLRRPFSGSFPRLVPTPRFLFALEDEEGPWLYAYHFGHPKEVERFREAFGGEEARPLDLRPRFPRGLGLGEGPLWDLRFRYQDGGASPPPPPAFLRLARVL”, the protein production entry is reported as “not failed”.

For “MEVMVFTPKGEIKRLPQGATALDFAYSLHSDLGDHCIGAKVNHKLVPLSYVLNSGDQVEVLSSKSQQPTELEHHHHHH”, the protein production result is reported as “not failed”.

Take “MEVNRLSALTPPMGWNSWDCYGASVTEEEVLGNAEYMANHLKKYGWEYIVVDIQWYEPTANSSAYNPFAPLCMDEYGRLLPATNRFPSAKNGAGFKPLSDAIHDLGLKFGIHIMRGIPRQAVYENSPVLGSTKTAREIAHTNSICPWNTDMYGVDPTKEGAQSYYNSLFELYAQWGVDFVKVDDIAASRLYDTHLEEIKMIQRAIQACGRPMVLSLSPGPAPIKYAHHFKTNANMWRITDDFWDDWSLLYQMFERCEVWEKHIGTGHWPDCGMLPLGHIGIRSVDGPGGDRWTRFTKDEQLTMMNLWAICHSPLMFGGELRDNDEWTLSLLTNEGILSINQKSVLNRFVYREEDKVAWAANGRNGEAYVALFNLHDQQKTLQFRLDMVGIMETVQLFNVWDRSFLQSLAPSESFQIELKPHQSMMLKLSPDR”: the protein production result is recorded as “not failed”.

On to “MEVPKEQIATLIEHGLYDSAEMLGCFLVSSPTVSAETSPQLKAENLILLGDALFHQREHRRAIHTYKQALHHYTRIPKQSSGISRSSLSLSTRSSVNASSISAINENEVRFKIASSHFALNETKAAIAEMESVKTRSLEMNILMAKLHRNSGYNRGAIAFYKECLRQCPYVLEAVIGLAELGVSAKDIISSFTQTSNRSAKVSLDQIDPTRWLQRYVEAQCCVASHAYKGALELFAELLQRFPNNVHLLTETAKVEAIIGKNDEAIMRFEKVRSIDPYTLTSMDEYAMLLQIKCDYSRLNKLVHDLLSVDHTRAEVFVALSVLWERKDARTALSYAEKSIRVDERHIPGYIMKGNLLLQAKRPEAAAIAFRAAQNLRSDLRSYQGLVHSYLAFGKTKEALYTAREAMNAMPQSAKALKLVGDVHAFTSSGREKAKKFYESGLRLEPGYLGAVLALAELHLMEGRNGDAVSLLERYLKDYADDSLHVKLAQVFAATNMLQDSLSHFQAALRINPQNEAAKKGLDRLEKQMKGIDPDATDENDENDVEDVDGDTEEAELM”, for which the protein production result is given as “failed”.

Turning to “MEVSDGSSQVLNSMKHVASLRADEDPDETSLLLSSTLLDLVVFRLVLVLYCVRVLMLDQYQETIALSQEVMMEDGRREFNVPMNCPIPVVKRRMKAPKHVDEDLFKIFPQATTYLRQIQKGGGSGCFEFIRGEVCTKDLSQNNTFYFIF”, the protein production result is “failed”.

Turning to “MEYEHITHSFEPVYDENSRILILGTLPSVASRENNFYYGHKQNRFWKLLAYLLDEPVPETIDEKKYMLFKNHIAIWDVIQSCDIKGSSDSSIKNVEPTDIRKILETADIKQVYANGNKAGALYKKYQLPLTGMEAVTLPSTSPANAAWSFERLCEAWTRILANL”, the protein production result is “failed”.

On to “MEYETILKLFSLVYIIIMMTIDFWIFGLILRREYVRVKGLLIILSIVLMMGLESLALAQLNVLLFISGMLLVLIPLFISFLIKDHSINVNRNWKYGLLLSSVIVFDELAMGYLYGNYFTPLPNPLLTAINNPAYGAMMLGDAIFFLYILRRRSIMEFAITTFAISMAFMPSLYLMDRMLEFIMSILTSLFMIVNIVLLYLTEMRMLTFQGQLVAISLSLFNLLMMLGLTFFASLSNLYFLTLSMIASMVWYFFLIFYNVPAKKISPKPFLFLVLVNLTELAMGFGESVLGFNLTNSLFVNTMNCEMMIGSHMMRSPFNNPFWWLFPINPLTMITMTIMKYNLLGKLVMVPFMTIMTTTMAPFYVIMMGAEMSYLVYERFKKVKTRYLKAWTLGILTGIPIFVVLIPYYTNYYIFGMSGMIFPVTLAPFVISLVVIALFSTLFGRGVYCNLVCMSAHMWSNVFYEQFSAKKNSKFWDYLRWIFLVPLIIAFYLFVMMGLGKIKLPIDPLDFYGMFTLNYIWWFFYFLTPIFGIYSCARQGWCGFGTFNGIFNKVLFKIRAKDVNTCKECVSKECDTSCPVKIPISNDILKKGYSNRISCIVCARCVDACDNVEIVNVVTILKNRESKSF”, for which the protein production result is reported as “failed”.

For the sequence “MEYFLENPDHLWYLIAGISFVIELSIMGLSGPLLFFAIASLTTGILVTVGFVEGWQSEIFTVGVLTAIIAAILWKPLKSLQNSKDTTDNSSDMVGLTVLASTEINVSSGSIRYSGIDWQARLAEEANGESISAQSQCVIVAITGNIMLVKSL”, the protein production result is “failed”.

Turning to “MEYHLQTPLKFEDIEKLNAGDIVYISGEILTARDEAHARILEMEERGEELPFSLEGAVIYHCGPLMQQTESGWKVISAGPTTSGRMSKMTPPLLKTHKVRAIIGKGGMKNVADSLKSCCVYLAYTGGCAALAAELIKDVKTVHWPDLGMPEAVWILRVEKFGPLIVGIDAKGKDIFSEVREKAEKALEELQK”, the protein production entry is recorded as “failed”.

Regarding “MEYKPMPYPIIDSHCHLDFPKFNPDREEAIQRARKAGVVGMVNSGISLKGNRISLELAEKNEDIHAALGLSPDIGREGSDKDINAILAQIEANAGKAVAIGEAGLDFQDCKTDEERRRQTASFKKVIELAKNLEKPLVVHARMAEAEVLELARDVDTVIYHCYSGSVETMKEIVDAGYYISLATLVCFSEHHQTLAAEVPPENLLLETDSPFLSPRRGRNEPAFIVDSIPVVAEYKEMEPAEIAKFATENARRVFKILEHHHHHH”, the protein production result is recorded as “failed”.

In the case of “MEYLGPVLWSPAGKPPTWWDSLPTDRPIVYATLGTSGGRNLLQLVLNALAELPVTVIAATAGRSDLKTVPANAFVADYLPGEAAAARSAVVVCNGGSLTTQQALVAGVPVIGVAGNLDQHLNMEAVERAGAGVLLRTERLKSQRVAGAVMQVISRSEYRQAAARLADAFGRLEHHHHHH”, the protein production result is given as “failed”.

Consider “MEYQHWLREAISQLQASESPRRDAEILLEHVTGRGRTFILAFGETQLTDEQCQQLDALLTRRRDGEPIAHLTGVREFWSLPLFVSPATLIPRPDTECLVEQALARLPEQPCRILDLGTGTGAIALALARERPDCEITAVDRMPDAVALAQRNAQHLAIKNIHILQSDWFSALAGQQFAMIVSNPPYIDEQDPHLQQGDVRFEPLTALVAADSGMADIVHIIEQSRNALVSGGFLLLEHGWQQGEAVRQAFILAGYHDVETCRDYGDNERVTLGRYYQ”, for which the protein production result is on record as “failed”.

As to “MEYQLQQLASLTLVGIKETYENGRQAQQHIAGFWQRCYQEGVIADLQLKNNGDLAGILGLCIPELDGKMSYMIAVTGDNSADIAKYDVITLASSKYMVFEAQGAVPKAVQQKMEEVHHYIHQYQANTVKSAPFFELYQDGDTTSEKYITEIWMPVKG”, the protein production result was “not failed”.

As to “MEYSTDLGRRVLLTLAGVALLLVVGLVLSQFLPTLVFTVFLYYASRPIYRRLGRLPLPKSFLKRAVPYQKQVHAAATIFFFLLPFVVLVGYTLVLVIPELQSFFGEGGLGAAYLSQFQELQGGSPPGPLADLGFSEVLAMGPAEVIDLLRNATVQSWLGRVSDTLIGSLSLLTSLLLRVFIMFAGTYYLLTDGPRLVGWFLDTFDGSGVLREYAAAVDEELSSILFGNILNALVTGVIGIFVFSLYNLVAPGSVQIPFAPLVGALTGIGSLIPVVGMKIVYLPVAVLLAVSAVVTGQTAALAWVALFLVVTLVVVDTIPDFLIRPYVSGDLTHVGLLMFAYILGPIAFGFYGIFLGPMLLVLAAQFFRIIVPYIITGTVETTQTSLSEYDSGES”, the protein production result is on record as “failed”.
